What all share (assay type): biochemical, Piper nigrum
Substrate in series [1]: C1CCNCC1
The series can be described thus: HPLC-UV/Vis and LC-MS of piperine (plus isomers) formation. As to conditions: co-substrate piperoyl-CoA, pH 8.0, 30 mM Tris/HCl, 1 mM DTT. An excerpt: (§1) HPLC-UV/Vis and LC-MS of piperine (plus isomers) formation on piperine synthase (PipBAHD2)

Substrate in series [2]: CC(C)(COP(=O)(O)OP(=O)(O)OC[C@H]1O[C@@H](n2cnc3c(N)ncnc32)[C@H](O)[C@@H]1OP(=O)(O)O)[C@@H](O)C(=O)NCCC(=O)NCCSC(=O)/C=C/C=C/c1ccc2c(c1)OCO2
The series is described as above. The conditions noted are these: co-substrate piperidine, pH 8.0, 30 mM Tris/HCl, 1 mM DTT.
Source text: as §1

Substrate in series [3]: C1CCNCC1
The series can be described thus: HPLC-UV/Vis and LC-MS of piperine isomer formation. As to conditions: co-substrate piperoyl-CoA, pH 8.0, 30 mM Tris/HCl, 1 mM DTT. The source says:
(§2) HPLC-UV/Vis and LC-MS of piperine isomer formation on piperamide synthase (PipBAHD1)

Substrate in series [4]: CC(C)(COP(=O)(O)OP(=O)(O)OC[C@H]1O[C@@H](n2cnc3c(N)ncnc32)[C@H](O)[C@@H]1OP(=O)(O)O)[C@@H](O)C(=O)NCCC(=O)NCCSC(=O)/C=C/C=C/c1ccc2c(c1)OCO2
The series can be described thus: HPLC-UV/Vis and LC-MS of piperine isomer formation. As to conditions: co-substrate piperidine, pH 8.0, 30 mM Tris/HCl, 1 mM DTT.
Source text: as §2

Here are results for 2 proteins from publication PMC8032705, “Identification and characterization of piperine synthase from black pepper, Piper nigrum L” (Communications Biology, 2021).

B1: piperine synthase (PipBAHD2) (Piper nigrum) (protein)
chain: MAPSSQLEFNVVRKQPELLPPAEPTPFEWKELSDIDDQDGLRLHISGFFIYPPSTMSNVGRDNVARDIRLGLSKAMVFYYPLAGRIREGPNRKLSVECTGEGIMYCEADADVRLEQFGDIGALSMPFPFMDKVMFETVDDGILGTPLMYFQSTRFICGGIVIAGCYNHAIADGLGFYMFMAAAAQLARGAASPTPLPVWQRERLLSRVPPRVTFIHHEYIHDTPKTETANPLDNEPWPLHSIFFTRVDVAALRAQLPGHLRKSATSFEIISACLWRCRTAALRFAPDELSRLIIAVNARTKFGPPLPQGYYGNSIMLPMVVSEAGKLVLSGLGYAVELVIEAKGKVTEEYVKSVADYLVLNGRPHYVVTNTYLVSDLRQLVEMSKFDWGWGKPAYVGPADVGENAISFLATLKNGEEEGVVVPIRLPESAVGRFKSEVSKMVSFGCLEDVKPNRDGYLSRM
notes: full-length cDNA from immature fruits, N-terminal His10 tag (pET-16b), E. coli LEMO21, IMAC
On to B1, for which the Michaelis-Menten constant (Km) in series [1] was found to be 7.6 ± 0.5 mM. In series [2], the Michaelis-Menten constant (Km) came to 0.342 ± 0.060 mM, the kcat came out at 1.01 ± 0.12 s⁻¹ and the kcat/Km is 2950 M⁻¹ s⁻¹.

B2: piperamide synthase (PipBAHD1) (Piper nigrum) (protein)
chain: MASSQLEFNVERKQPELLGPAEPTPYELKELSDIDDQDGVRLFLTAIFIYPPPTKTSMPTRKTDPASDIRRGLSKAMVYYYPFAGRIREGPNRKLSVDCTGEGIVFCEADADIRLDGLGDVEVLRPPYPFIDKMTLGEGSAILGAPLVYVQVTRFACGGFIITGRFNHVMADAPGFTMFMKAAADLARGATVPMPLPVWERERYRSRVPPRVTFAHHEYMHVDDPPPRPTSEPWSLHSAFFTKADVATLRAQLPADLRKAATSFDIITACMWRCRVSALQYGPDEVVRLIVAVNSRTKFDPPLTGYYGNGLMLPAAVTEAGKLVGSDLGYAVELVREAKGKVTEEYVRSAADFLVLNGRVHFVVSNTFLVSDLRRLIDLANMDWGWGKAVSGGPVDVGENVISFLATSKNSAGEEGAVVPFCLPDSALGRFTSEVKKLVCFRPLENAAASNPDHGYMSRM
notes: as for B1
Take B2: in series [3], the Km was 8.69 ± 3.6 mM, the kcat came to 0.27 ± 0.02 s⁻¹ and the kcat/Km is 31.1 M⁻¹ s⁻¹. For the same protein, in series [4], the Km is given as 0.196 ± 0.009 mM, the kcat came out at 0.35 ± 0.01 s⁻¹ and the catalytic efficiency (kcat/Km) was found to be 1790 M⁻¹ s⁻¹.
